Protein production data for 26 sequences are collected here from a protein production outcome set (Wang et al. 2014).

The data set can be described thus: label from the status in PepcDB records.
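Also: failed if final PepcDB status was selected cloned or expressed and not failed if soluble or beyond.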

Regarding “TDGEGEDPAEYPTVNHKIEKAIEVTKTGLEEYENPVVMWTGGKDSTLTLYFVKEVAERFDLEVPPVVFIDHYQHFDELIDFVEHWADEWDLDVIWARNEDVGNYVDENGLEPGDDIPVDELSEHNQHHIRNILEYEEDTFPFLLDTYVGNHLLKTVALNDTIEEHDVDGILSGIRWDEQESRADETFFSPRHDPDIYPPHDRIQSILQFAEADVWEAFWNFVVPDTVEGYPDEGYVPQGQDDLPEGIEKEDVPVSPKYFAGFRSLGSE”, the protein production result is listed as “failed”. With “TDLPMPRVTVFALWEPLAIMRELWAEGGIGPGRLAVMDRVKGPKTGLLMRHQDKPGGVAFVAIHDGVAMLHALEIPPHQRRKGLGKWAMRGAAFWALDNGAHTLSVICTKANEGANALYRSLGMQLVGEYHYRLLQE”, the protein production result is recorded as “failed”.

For the sequence “TELQAVTGRAEIAGERLKLLYDAGLGIGTTLDVLRTADELAQVAVPRFADFVTVDLADAVLHGEEPAPTATDLRRTAVCGIRDDHPLYELGQLIDFLPSTPQARGYGSGYSELVTDLSTATGWHAQDPERTKAIIDYGIHSLIAAPIQARGVVLGMANFWRSKQHEPFVEEEMSLAEELVARAAVSIDNARRYTREHALAVTLQRSLLPRALP”, the protein production entry is listed as “failed”. For “TGEREYIKKLEPMLKELGWWGKAKDENGNEVQLGSPRRLRTILRTNKITAYHAARYAQQMENVDEQPYWRYVAVNDSRTRASHLALHGKIYRADDPIWQTMYPPNDWGCRCRVEALS” the value was “failed”; for “THSETITIPVFDTQVAGTLLTPRAKLPGVLFVHGWGGSQRFDLSRARDIAGLGCICLTFDLRGHAATEAQRRQVTREDSLRDIMAAYDALIAHPAVDTSAIAVVGSSYGGYLAAILTTLRAVRWLALHVPALYRDDEWAQPKLQLDRAAISAYRHATVAPEGNRALSACSSFRGDVLIVEAEHDDYIPHSTIMSYRGAFLHSHSLTHRIVDGADHALSDKRCQQAYSSILLNWATEMV”, “failed”; for “TIDIDLQKKVESLLEKQISKLRSQGAKDMDNALMVVQNPKNGDILAIAGKQIDKQGKLKDYDIGNFTAQYTVGSSVKGGTLLAGYQNKAINVGETMVDEPLKFQGGLTKRSYFNKNGHVSIDDKQALMHSSNVYMFKTALKLAGDPYTSGMSLPNNIADAGRKLRKGLNQVGLGLKTGIDLPNETPGQIEPLTNNPGNYLDLAIGQYDTYTPLQLSQYVSTIANDGYRIQPHIGLSIYESTNKDETGPLKRKIKGNVLNKVNNSNDEIKEVQEGFKMAFNEKQGTGYASFRNTVVPSAGKTGTAEVFQDGEPRVNSTYIGYAPVDDPKLSFSIVYTNQPVPPPWLNGGDLGRDVINYYFKDKDNKKDDSQSNNEEKED”, “failed”.

As for “TINSKFQSDVSAALKKYMGTDLTTGGYAAVMNPKTGGVYAMAGWDRNVKTGKLTQNDLAAIQDPIVMGSAVKPAMVSMALQAGVITPTSSTQDDQIIKLAGTAEKHSDFNPTGVKIPLTAEQALEDSSNTYMIQLALKMNGTPYVSGMSLNVSSNIWQKMRNGFGEFGLGSRTGIDLPGETAGYKGSITGSLASSFIDEAFGQYDTYSVIQMARFVSTIANGGYLVQPKVVASVLKSGKNGVRSSVASEVSPTIQGYVKMNNAQWNVIKTGMWDVANGSSQYNTGGTLIHELSPKVAAKTGTAESFVDGQQTQNDTLIMYSPYAPFAIAIAYVGDKVDSFGAVEKAAAAIYNAFWKDVMPKPND”, the protein production result was “failed”. Under “TKIKSVRTRVWNWTGPTVPPQGNFCTNASDALWIQGDAMASFRFHQWLTCEVETEDGTIGIGNAALAPNVVKQAIDEWYAPLVIGEDPFDYAYLWEKMYRRTHAWGRKGIGMTAISAIDIAIWDLMGKLVGKPVFKLLGGRTKEKIPVYYSKLYADSIPAMQAEAEEAQKHGYQGYKTRFGYGPKDGPAGMRENLKRVEALREVLGYDVDLMLECYMGWNLDYTKRMLPKLERFEPRWLEEPVIADDVAGYAELNAMGIVPISGGEHEFSVMGCAELINRKAVSVLQYDTNRVGGITAAQKINAIAEAAQIIVIPHAGQMHNYHLTMANMNCPISEYFPVFDVEVGNELFYYIFDGDPEAVDGYLQLDDDTPGLGITISDAHLKHFEITE” stands “not failed”; under “TKTTTQGAKSGVFDTVDEAVQAAVIAQNCYKEKSLEERRNVVKAIREALYPEIETIATRAVAETGMGNVTDKILKNTLAIEKTPGVEDLYTEVATGDNGMTLYELSPYGVIGAVAPSTNPTETLICNSIGMLAAGNAVFYSPHPGAKNISLWLIEKLNTIVRDSCGIDNLIVTVAKPSIQAAQEMMNHPKVPLLVITGGPGVVLQAMQSGKKVIGAGAGNPPSIVDETANIEKAAADIVDGASFDHNILCIAE”, “not failed”. For “TLPGRISRERRGHLLLLGLDRVAKRNAFDLPMLDDLVAALGEYEADDQLRCALLFAHGEHFTAGLDLANVGETFRQGWKLPEGAVDPWGTFGGRRPSKPLVVAVQGYCYTIGIELMLAADINLCASNARFAQLEVQRGILPFGGATLRMHQVAGWGNAMRWLLTGDEFDAHEAYRLGLVQEVTAPEDLLDHAIALAERVAAQAPLGVRATLGSARQALLEGEAVAAAALPEAARRLLDSEDAKEGLRALQERRPGRFE” the value was “failed”; for “TPGRGSRVTDQGICPKHQEALKLFCEVDEEAICVVCRESRSHKQHSVVPL”, “not failed”. Under “TPIINDPETVKLFLLTELQHEEREVFMVLFLDNQHRLIKKERLFLGTIYVSAVYPREIIKEALYCNAAALILAHNHPSGITEPSYSDQLITKKIQDAAELMEIRVLDHLIVGKSDCYSFAENCLL” stands “failed”. For “TPSRVEAFDNSNIHGTDPVSAMVTFLDGKPSKNDYRKYKIKTVEGPDDYATMREVIRRRYWRVLKEGLPMPDLILIDGGKGQIDSAKDVLTNELGLDIPVAGLAKDDKHRTSQLLFGDPLEIVPLERNSQEFYLLQRMQDEVHRFAITFHRQLRSKTGFQSILDGIPG”, the protein production entry is “failed”. Under “TQNLREKQEIAKRAACDIQDHECIFLDAGSSTFELIQYIEAKDITVVTNGMTHVEELLKHGIKTLMVGGQVKPTTMATVGANALETLRRYCFDRAFIGMNGIDVKYGLTTPDEQEALIKETAMKLSNHKYVLVDQSKFNQIYFARVSILDGLSIITSQKAMQSKMTEAYMNEFNFIGGKS” stands “failed”. Under “TQSNLYSFLKAISNRFSQYNYSSILCVTSISFDIFILETLFPIFMGKTCVFASDEEIEDISKLTQLIRIYQVDTIQSTPSRWGIFTEDEQLMTLLKERLKLVLVGGEKLTKNIAEKLLSIGGKLINLYGPTEATVWAFASEVTDPNQIYLGEP” stands “failed”. Under “TRMAPVIMVPGSSASQNRFDSLITELGKETPKKHSVLKLTVQTDGTIKYSGSIAANDNEPFIVIGFANNRDGKANIDKQAVWLNTAFKALVKTYHFNHFYALGHSNGGLIWTLFLERYLKESPKVHIDRLMTIASPYNMESTSTTAKTSMFKELYRYRTGLPESLTVYSIAGTENYTSDGTVPYNSVNYGKYIFQDQVKHFTEITVTGANTAHSDLPQNKQIVSLIRQYLLAETMPDK” stands “not failed”. Take “TRMAPVIMVPGSSASQNRFDSLITELGKETPKKHSVLKLTVQTDGTIKYSGSIAANDNEPFIVIGFANNRDGKANIDKQAVWLNTAFKALVKTYHFNHFYALGHSNGGLIWTLFLERYLKESPKVHIDRLMTIASPYNMESTSTTAKTSMFKELYRYRTGLPESLTVYSIAGTENYTSDGTVPYNSVNYGKYIFQDQVKHFTEITVTGANTAHSDLPQNKQIVSLIRQYLLAETMPDKVRQKNAQRVQN”: the protein production result was “not failed”. “TVLYVHGGAWFQDPLENHFEYLDLLVDALDARVIMPVYPKIPHRDYRTTFELLTKIYKRLLTKIDEPENLVIIGDSAGGQIALAFAQMLKKEQLSQPGHIVLISPVLDATFKNPEARKYEKEDPMLGIDGSKYLVELWAGDAPLDDYKMSPMNGDLEGLGHITLTVGTKETLYPDAVKFSHMLNDKGIKHQFIPGYNLFHIYPLFPIPERQRFLEQLKKII”: the protein production result is “failed”. For “VAARPPALCKGCSHRDVYDALNEVLTEYPNGRVFSDIGCYTLGALPPYEAINSCVDMGASITMAKGAADAGLFPAVSVIGDSTFTHSGITGLLDAINENSNITVIISDNESISMTGGQHSSAYGKVEAICRGIGVDPDHIRELLPVPKNHDELCSIIREEINYEGVSVIIPRRVCIQKHARDAKAAKRAKAKE”, the protein production result is “failed”. Under “VADASDPIRPLVEALNAEAPLKLWSVLVTCLGDVSRDGVIEVSGVALSSFVERMGLQPQAMRVALHRLKRDGWVESRRLGRVGFHRLSDSALTQTRAVAGRIYGPGAGPAPWHLAGMPPDAPDGLSLLPDTLSATPISRRFALICGPLEDVPEDWLLTAPSGRGLPVWVQDVVVEAGCEAEFKALERTLAQIDKVPDTRLERFTLRVLVLHAWRRLILRSSPAAEAALGGARAEISCRARVHQLLDQLGSVEPDWDLPATEDAAS” stands “not failed”; under “VALCVLRRSDGRVVLENTLSQQWLGNGSERDQLCSGWIEQAFDPARPNSSDYFETADGRHLYLSSAPTRYNGEDVLFCAFSDISARKQIEAALEEAKRLADTANEAKTLFLATMSHEIRTPLYGVLGTLELLSRTQ”, “failed”; under “VARTAEEQANHDLVIEMYNKVLIAMDSSAVDRYIAPGYVQHSSLAEPSVEALKGFLDRVRAESPDARQTIHRSFVDGDHVITHTHVERWPGDAGLAVVDIFRVEGGMIVEHWDVIQDVPANPVNPNSMF”, “not failed”. Under “VDKINPDLRVHLRLDRGEAILSLDLSGHSLHQRGYRLQQGAAPLKENLAAAILIRAGWPRIAAEGGALADPMCGVGTFLVEAGMIAADIAPNIKRERWGFSAWLGHVPTLWRKLHDEALARAEAGLAKTPSWIRGYEADPRLIQPGRNNIERAGLSDWIKVYQGEVATFEPRPDQNQKGLVICNPPYGERLGDEASLLYLYQNLGERLRQACLNWEAAVFTGAPDLGKRMGIRSHKQYSFWNGALPCKLLLIKVTPDQF” stands “failed”; under “VEGPCEAKIECSDNGDGTCSVSYLPTKPGEYFVNILFEEVHIPGSPFKADIEMPFDPSKVVASGPGLEHGKVGEAGLLSVNCSEAGPGALGLEAVSDSGTKAEVSIQNNKDGTYAVTYVPLTAGMYTLTMKYGGELVPHFPARVKVEPAVDTSRIKVFGPGIEGKDVFREATTDFTVDSRPLTQVGGDHIKAHIANPSGASTECFVTDNADGTYQVEYTPFEKGLHVVEVTYDDVPIPNSPFKVAVTEGCQPSRVQAQGPGLKEAFTNKPNVFTVVTRGAGIGGLGITVEGPSESKINCRDNKDGSCSAEYIPFAPGDYDVNITYGGAHIPGSPFR”, “failed”.

For the sequence “VEVESFLVHPGDLLQLRCRLRDDVQSINWLRDGVQLAESNRTRITGEEVEVQDSVPADSGLYACVTSSPSGSDTTYFSVNVSDALP”, the protein production entry is given as “not failed”.

Regarding “VGDHDSHEVMQRLDALLPTLRERAQETEDLRRIPDDSMKALQETGFFRLLQPEQWGGYQADPVLFYSAVRKIASACGSTGWVSSIIGVHNWHLALFSQQAQEDVWGNDTDVRISSSYAPMGAGQVVDGGYTVNGAWAWSSGCDHASWAVLGGPVIKDGRPVDFVSFLIPREDYRIDDVWNVVGLRGTGSNTVVVEDVFVPTHRVLSFKAMSNLTAPGLERNTAPVYKMPWGTIHPTTISAPIVGMAYGAYDAHVEHQGKRVRAAFAGEKAKDDPFAKVRIAEASSDIDAAWRQLSGNVADEYALLVAGEEVPFELRLRARRDQVRATGRAISSIDKLFESSGATALANGTPLQRFWRDAHAGRVHAANDPERAYVMYGTGEFGLPITDTMV”, the protein production result was “not failed”.
